Results from paper PMC12749422.

How the values were obtained:
[1] = target: A/Singapore/INFIMH/16 (Sing/16) H3 hemagglutinin, recombinant HA-GCN4-2x sfGFP, glycosylated (influenza A virus A/Singapore/INFIMH/16 (H3N2)); assay: cryo-EM structure
[2] = target: A/Singapore/INFIMH/16 (Sing/16) H3 hemagglutinin, recombinant HA-GCN4-2x sfGFP, treated with endo H (influenza A virus A/Singapore/INFIMH/16 (H3N2)); assay: cryo-EM structure

| Substance | stoichiometry N [1] | stoichiometry N [2] |
| --- | --- | --- |
| A/Singapore/INFIMH/16 (Sing/16) H3 hemagglutinin, recombinant HA-GCN4-2x sfGFP, glycosylated (natural protein) | 3 | – |
| A/Singapore/INFIMH/16 (Sing/16) H3 hemagglutinin, recombinant HA-GCN4-2x sfGFP, treated with endo H (natural protein) | – | 3 |
